B1: HDV Ribozyme (parent)
chain: GGCCGGCAUGGUCCCAGCCUCCUCGCUGGCGCCGGCUGGGCAACAUUCCGAGGGGACCGUCCCCUCGGUAAUGGCGAAUGGGACCCA

Variants of: B1
Assay: self-cleavage, relative activity (ratio to wild type); higher = more cleavage; co-transcriptional

Variant | self-cleavage
GGCCGGCAUGGUCCCAGCCUCCUCGCUGGCACCGGCUGGGCAACAUUCCGAGGGGACCGUCCCCUCGGUAAUGGCGAAUAGGACCCA | 0.103
GGCCGGCAUGGUCGCAGCCUCCUCGCUGGCGCCGGCUGGGCAACAUUCCGAGGGGACCGUCCCCUCGGUGAUGGCGAAUGGGACCCA | 0.831
GGCCGGCAUGGUCCCAGUCUCCUCGCUGGCGCCGGCUGGGCAACAUUCCGAGGGGACCGCCCCCUCGGUAAUGGCGAAUGGGACCCA | 0.7
GGACGGCAUGGUCCCAGCCUCCUCGCUGGCGCCGGCUGGGCAACAUUCCCAGGGGACCGUCCCCUCGGUAAUGGCGAAUGGGACCCA | 0.572
GGCCGGCAUGGUCCCAGCCUCCUCGCUGGCGCCGGCUGGGCAACAUUCCGAGGGGACCGUGCCCUCGGUAAUGGCGAAUGGGACUCA | 1.04
GGCCGGCAUGGUCCCAGCCUCCUCGCUGGCGCCGGCCGGGCAACAUUCCGUGGGGACCGUCCCCUCGGUAAUGGCGAAUGGGACCCA | 0.923
GGCCGGCAUGGUCCCAGCCUCCUCGCUGGCGCCGGCUGGGCAACAUUCCGAGGGGACCGUCCCCUGGGUAAGGGCGAAUGGGACCCA | 0.266
GGCCGGCAUGGUCCCAGCCUCCUCGCUGGCGCGGGCUGGGCAACAUUCCGAGGGGACCGUCCCCUCGGUUAUGGCGAAUGGGACCCA | 0.383
GGCCGGCAUGGUCCCAGCCUCCUCGCUGGCGCCGGCUGGGCAACAUUCCGAGGGGACCGUACCCUGGGUAAUGGCGAAUGGGACCCA | 0.942
GGCCGGCCUGCUCCCAGCCUCCUCGCUGGCGCCGGCUGGGCAACAUUCCGAGGGGACCGUCCCCUCGGUAAUGGCGAAUGGGACCCA | 0.151
GGCCGGCAUGGUCUCAGCCUCCUCGCUGGCGCCGUCUGGGCAACAUUCCGAGGGGACCGUCCCCUCGGUAAUGGCGAAUGGGACCCA | 0.288
GGCCGGCAUGGUCCCAGCCUCCUCACUGGCGGCGGCUGGGCAACAUUCCGAGGGGACCGUCCCCUCGGUAAUGGCGAAUGGGACCCA | 0.0623
GGCCGGCAUGGUCCCAGCCUCCUCGCUGGCGCCGGCUGGGGAACAUUUCGAGGGGACCGUCCCCUCGGUAAUGGCGAAUGGGACCCA | 0.649
GGCCGGCAUGGUCCCAGCAUCCUCGCUGGCGCCGGAUGGGCAACAUUCCGAGGGGACCGUCCCCUCGGUAAUGGCGAAUGGGACCCA | 0.119
GGCCGGCAUGGUCCCAGCCACCUCGCUGGCGCCGGCUGGGCAACAUUACGAGGGGACCGUCCCCUCGGUAAUGGCGAAUGGGACCCA | 0.0573
GGCCGGCAUGGUCCCAGCCUCCUCGCUGGCGCCGGCUGGGCAACACUCCGAGGCGACCGUCCCCUCGGUAAUGGCGAAUGGGACCCA | 1.04

Variant | self-cleavage
GGCCGGCAUGGUCCCAGCAUCCUCGCUGGCGCCGGCUGGGCAACAUUCCGAGGGGACCGUCCCCUCGGUAAUGGCGCAUGGGACCCA | 0.0941
GGCCGGCAUGGUCCCUGCCUCCUCGCUGUCGCCGGCUGGGCAACAUUCCGAGGGGACCGUCCCCUCGGUAAUGGCGAAUGGGACCCA | 0.113
GGCCGGCAUGGUCCCAGCCUCCUCGCUGGCGCCGGCUGGGCAACAUGCCGAGGGGACCGUCCCCUCGGUAAUGGGGAAUGGGACCCA | 0.317
GGCCGGCAUGGUCCCAGCCUCCUCGAUGGCGCCGGCUGGGCAACAUUCCGAGGGGACCGUCCCCUCGGUAAUGGCGAUUGGGACCCA | 0.269
GGCCGGCAUGGUCCCAGCCUCCUGGCUGGCGCCGGCUCGGCAACAUUCCGAGGGGACCGUCCCCUCGGUAAUGGCGAAUGGGACCCA | 0.0791
GGUCGGCAUGGUCCCAGCCUCCUCGCGGGCGCCGGCUGGGCAACAUUCCGAGGGGACCGUCCCCUCGGUAAUGGCGAAUGGGACCCA | 0.723
GGCCGGCAUGGUCCCAGCCUCCUCGCUGGCGCUGGCUGGGCAUCAUUCCGAGGGGACCGUCCCCUCGGUAAUGGCGAAUGGGACCCA | 0.356
GGCCGGCAUGGUCCCAGCCUCCUCACUGGCGCCGGCUGGGCAACAUUCAGAGGGGACCGUCCCCUCGGUAAUGGCGAAUGGGACCCA | 0.101
GGCCGGCAUGGUCUCAGCCUCCUCGCUGGCGCCGGCUGGGCAACAUUCCGAGGGGACCGUCCCCACGGUAAUGGCGAAUGGGACCCA | 1.22
GGCCGGCAUGGUCCCAGCCGCCUCGCUGGCGCCGGCUGGGCAACAUUCCGAGGGGACCGUCCCCUCGGUAAUGGCGAAUGGUACCCA | 0.104
GGCCGGCAUGGUCCCAGCCUCCUCGCUGGCGCCGGCUGGGCAACAUUCCGAGGGGACCGUCCCCUCGGUAAUGGCGAAUGUGAGCCA | 0.0923
GGCCGGCAUGGUACCAGCCUCCUCGCUGGCGCCGGCUUGGCAACAUUCCGAGGGGACCGUCCCCUCGGUAAUGGCGAAUGGGACCCA | 0.0536
GGCCGGCAUGGUCCCAGCCUCCUUGCUGGCGCCGGCUUGGCAACAUUCCGAGGGGACCGUCCCCUCGGUAAUGGCGAAUGGGACCCA | 0.115
GGCCGGCAUGGUCCCAGCCUCCUCGCUGGCGCCGGCUGGGCAACAUUACGAGGGGACCGUCCCGUCGGUAAUGGCGAAUGGGACCCA | 0.786
GGCCGGCAUGGUCCCAGCCUCCUCGCCGGCGCCGGCUGGGCAACAUUCCGAGGGGACCGUCCCCUCGGUAAUGGCGAAUGGGUCCCA | 0.465
GGCCGGCAUGGUCCCAGCCUCCUCGCUAGCGCCGGCUGGGCAACAUUCCGAGGGGACCGUCCCCUCGGUACUGGCGAAUGGGACCCA | 0.162

Source: the RNAGym collection of RNA variant scans (doi:10.7554/elife.80360)
